Data reported in publication PMC12531337 (Nature Communications, 2023).
Where “and” joins values, the source holds several entries; their conditions need not be identical. Equal values may be shown once.

T1: mCherry fusion FUS LC domain (UniProt P35637 2-214)
T1 sequence (looked up): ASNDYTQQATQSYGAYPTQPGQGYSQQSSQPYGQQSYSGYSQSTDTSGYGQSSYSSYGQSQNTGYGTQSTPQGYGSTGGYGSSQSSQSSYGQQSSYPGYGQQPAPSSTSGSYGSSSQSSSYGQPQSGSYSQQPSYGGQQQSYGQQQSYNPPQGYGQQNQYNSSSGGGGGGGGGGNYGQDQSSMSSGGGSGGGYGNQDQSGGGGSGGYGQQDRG

B1: GFP fusion ZEB2 ZnF6-8 (domain or fragment, UniProt O60315 999-1076, looked up)
chain: YACDLCDKTFQKSSSLLRHKYEHTGKRPHQCQICKKAFKHKHHLIEHSRLHSGEKPYQCDKCGKRFSHSGSYSQHMNH
B2: GFP-fused ZnFs of KLF4 (domain or fragment)
chain: not shown
B3: GFP:ZEB2-ZnF1-4 (domain or fragment, UniProt O60315 211-334, looked up)
chain: LTCPYCDRGYKRLTSLKEHIKYRHEKNEENFSCPLCSYTFAYRTQLERHMVTHKPGTDQHQMLTQGAGNRKFKCTECGKAFKYKHHLKEHLRIHSGEKPYECPNCKKRFSHSGSYSSHISSKKC
B4: GFP:ZEB2-ZnF6-7 (domain or fragment, UniProt O60315 999-1049, looked up)
chain: YACDLCDKTFQKSSSLLRHKYEHTGKRPHQCQICKKAFKHKHHLIEHSRLH
B5: GFP:ZEB1-ZnF5-7 (domain or fragment, UniProt P37275 904-981, looked up)
chain: YACDLCDKIFQKSSSLLRHKYEHTGKRPHECGICKKAFKHKHHLIEHMRLHSGEKPYQCDKCGKRFSHSGSYSQHMNH
B6: GFP:ZNF512B ZnF3-5 (domain or fragment, UniProt Q96KM6 540-653, looked up)
chain: LKCQHCRKQFKSKAGLNYHTMAEHSAKPSDAEASEGGEQEERERLRKVLKQMGRLRCPQEGCGAAFSSLMGYQYHQRRCGKPPCEVDSPSFPCTHCGKTYRSKAGHDYHVRSEH
B7: mCherry fusion hnRNPA2 LC domain F291S mutant (domain or fragment, UniProt P22626-2 181-341, looked up)
chain: MQEVQSSRSGRGGNFGFGDSRGGGGNFGPGPGSNFRGGSDGYGSGRGFGDGYNGYGGGPGGGNFGGSPGYGGGRGGYGGGGPGYGNQGGGYGGGYDNYGGGNYGSGNYNDSGNYNQQPSNYGPMKSGNFGGSRNMGGPYGGGNYGPGGSGGSGGYGGRSRY

biological target: T1, mCherry fusion FUS LC domain; experiment: hydrogel binding assay

**Q.** Does B1 bind?
**A.** binds

biological target: mCherry fusion TDP43 LC domain (UniProt Q13148 262-414); experiment: hydrogel binding assay
Sequence (Q13148 262-414): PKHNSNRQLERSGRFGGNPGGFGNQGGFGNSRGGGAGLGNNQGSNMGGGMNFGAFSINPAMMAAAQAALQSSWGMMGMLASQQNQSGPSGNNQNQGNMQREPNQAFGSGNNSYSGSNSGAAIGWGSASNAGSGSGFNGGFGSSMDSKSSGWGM

**Q.** Does B1 bind?
**A.** binds

biological target: mCherry fusion hnRNPA2 LC domain (UniProt P22626-2 181-341); experiment: hydrogel binding assay

**Q.** Does B2 bind?
**A.** binds

**Q.** Does B3 bind?
**A.** binds

**Q.** Does FSCQFCKESFPGPIPLHQHERYLCK (domain or fragment, UniProt O60315 581-605, looked up) [GFP:ZEB2-ZnF5] bind?
**A.** binds

**Q.** Does B4 bind?
**A.** binds

**Q.** Does HQCQICKKAFKHKHHLIEHSRLHSGEKPYQCDKCGKRFSHSGSYSQHMNH (domain or fragment, UniProt O60315 1027-1076, looked up) [GFP:ZEB2-ZnF7-8] bind?
**A.** binds

**Q.** Does YACDLCDKTFQKSSSLLRHKYEH (domain or fragment, UniProt O60315 999-1021, looked up) [GFP:ZEB2-ZnF6] bind?
**A.** binds

**Q.** Does HQCQICKKAFKHKHHLIEHSRLH (domain or fragment, UniProt O60315 1027-1049, looked up) [GFP:ZEB2-ZnF7] bind?
**A.** binds

**Q.** Does YQCDKCGKRFSHSGSYSQHMNH (domain or fragment, UniProt O60315 1055-1076, looked up) [GFP:ZEB2-ZnF8] bind?
**A.** binds

**Q.** Does B5 bind?
**A.** binds

**Q.** Does B1 bind?
**A.** binds

**Q.** Does B6 bind?
**A.** binds

Biological target: the molecule itself
Experiment: AUC

**Q.** How did the “stoichiometry N” value turn out when B7 was run?
**A.** 2 and 3
